The assay has as its target T1, recombinant purified CD123-Fc fusion protein (Bio-Techne/R&D Systems) (human, UniProt P26951 19-305).
T1 construct: Bought; also called Fc-fusion of the CD123 antigen; recombinant CD123
T1 sequence: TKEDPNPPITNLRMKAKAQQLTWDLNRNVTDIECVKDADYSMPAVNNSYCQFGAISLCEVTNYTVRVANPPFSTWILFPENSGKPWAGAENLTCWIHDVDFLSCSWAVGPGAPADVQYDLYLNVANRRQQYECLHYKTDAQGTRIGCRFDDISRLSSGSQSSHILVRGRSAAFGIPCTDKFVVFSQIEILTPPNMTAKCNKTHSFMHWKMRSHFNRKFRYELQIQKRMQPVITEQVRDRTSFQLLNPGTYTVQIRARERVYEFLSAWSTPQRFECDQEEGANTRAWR
Put plainly: BLI, CD123-Fc on anti-human IgG Fc capture sensors, Octet Red96e. As to the method: To determine the kinetics of binding of humanized 1D2-5C8var1 variants to CD123, recombinant purified CD123-Fc fusion protein (Bio-Techne/R&D Systems) was loaded to a density of 1 nm onto anti-human IgG Fc Capture sensors (using a concentration of 5 μg/ml) for an Octet Red96e (Sartorius) instrument. Different sensors were then dipped in different concentrations of humanized 1D2-5C8var1 variants, starting at 50 nM and two-fold dilutions thereof; dilutions were made in 10× kinetic buffer (10×KB) provided by the supplier. From the obtained sensorgrams, the kinetic association- and dissociation rate constants were determined by curve fitting. The association- and dissociation rate constants, when fitting was possible, were used to calculate the affinity of the humanized 1D2-5C8var1 variants for binding to CD123. […] For reference, the non-humanized (parental) 1D2 was included in these experiments.

B1: humanized 1D2-5C8var1 variant with 1D2 var7 (SEQ ID NO:31) (bispecific antibody)
chain: EVQLVESGGGLVQPGGSLRLSCAASGRTASSYVMSWVRQAPGKGLEWVSVINWNGDSTYYADSVKGRFTISRDNSKNTLYLQMNSLRAEDTAVYYCAADTRREWYRDGYWGPPARYEYDYRGQGTLVTVSSGGGGSEVQLLESGGGSVQPGGSLRLSCAASGRPFSNYAMSWFRQAPGKEREFVSAISWSGGSTSYADSVKGRFTISRDNSKNTLYLQMNSLRAEDTAVYYCAAQFSGADYGFGRLGIRGYEYDYWGQGTQVTVSSAAAEPEA
notes: See note of m19
Consider B1, for which the binding result is “no binding (tested: 50 nM (highest concentration tested))”.
